# Test results taken from IntAct's records for PubMed 19864458.
# B1: EH domain-containing protein 1 (Homo sapiens), Q9H4M9 (parent)
# chain: MFSWVSKDARRKKEPELFQTVAEGLRQLYAQKLLPLEEHYRFHEFHSPALEDADFDNKPMVLLVGQYSTGKTTFIRHLIEQDFPGMRIGPEPTTDSFIAVMHGPTEGVVPGNALVVDPRRPFRKLNAFGNAFLNRFMCAQLPNPVLDSISIIDTPGILSGEKQRISRGYDFAAVLEWFAERVDRIILLFDAHKLDISDEFSEVIKALKNHEDKIRVVLNKADQIETQQLMRVYGALMWSLGKIINTPEVVRVYIGSFWSHPLLIPDNRKLFEAEEQDLFKDIQSLPRNAALRKLNDLIKRARLAKVHAYIISSLKKEMPNVFGKESKKKELVNNLGEIYQKIEREHQISPGDFPSLRKMQELLQTQDFSKFQALKPKLLDTVDDMLANDIARLMVMVRQEESLMPSQVVKGGAFDGTMNGPFGHGYGEGAGEGIDDVEWVVGKDKPTYDEIFYTLSPVNGKITGANAKKEMVKSKLPNTVLGKIWKLADVDKDGLLDDEEFALANHLIKVKLEGHELPADLPPHLVPPSKRRHE
# B2: MICAL-like protein 1 (Homo sapiens), Q8N3F8 (parent)
# chain: MAGPRGALLAWCRRQCEGYRGVEIRDLSSSFRDGLAFCAILHRHRPDLLDFDSLSKDNVFENNRLAFEVAEKELGIPALLDPNDMVSMSVPDCLSIMTYVSQYYNHFCSPGQAGVSPPRKGLAPCSPPSVAPTPVEPEDVAQGEELSSGSLSEQGTGQTPSSTCAACQQHVHLVQRYLADGRLYHRHCFRCRRCSSTLLPGAYENGPEEGTFVCAEHCARLGPGTRSGTRPGPFSQPKQQHQQQLAEDAKDVPGGGPSSSAPAGAEADGPKASPEARPQIPTKPRVPGKLQELASPPAGRPTPAPRKASESTTPAPPTPRPRSSLQQENLVEQAGSSSLVNGRLHELPVPKPRGTPKPSEGTPAPRKDPPWITLVQAEPKKKPAPLPPSSSPGPPSQDSRQVENGGTEEVAQPSPTASLESKPYNPFEEEEEDKEEEAPAAPSLATSPALGHPESTPKSLHPWYGITPTSSPKTKKRPAPRAPSASPLALHASRLSHSEPPSATPSPALSVESLSSESASQTAGAELLEPPAVPKSSSEPAVHAPGTPGNPVSLSTNSSLASSGELVEPRVEQMPQASPGLAPRTRGSSGPQPAKPCSGATPTPLLLVGDRSPVPSPGSSSPQLQVKSSCKENPFNRKPSPAASPATKKATKGSKPVRPPAPGHGFPLIKRKVQADQYIPEEDIHGEMDTIERRLDALEHRGVLLEEKLRGGLNEGREDDMLVDWFKLIHEKHLLVRRESELIYVFKQQNLEQRQADVEYELRCLLNKPEKDWTEEDRAREKVLMQELVTLIEQRNAIINCLDEDRQREEEEDKMLEAMIKKKEFQREAEPEGKKKGKFKTMKMLKLLGNKRDAKSKSPRDKS
# partner: B1 chain
# Variants of: B1
# Conditions: with milk1_human MICALL1, Q8N3F8
row,Variant,effect of a mutation on the interaction
1,MFSWVSKDARRKKEPELFQTVAEGLRQLYAQKLLPLEEHYRFHEFHSPALEDADFDNKPMVLLVGQYSTGKTTFIRHLIEQDFPGMRIGPEPTTDSFIAVMHGPTEGVVPGNALVVDPRRPFRKLNAFGNAFLNRFMCAQLPNPVLDSISIIDTPGILSGEKQRISRGYDFAAVLEWFAERVDRIILLFDAHKLDISDEFSEVIKALKNHEDKIRVVLNKADQIETQQLMRVYGALMWSLGKIINTPEVVRVYIGSFWSHPLLIPDNRKLFEAEEQDLFKDIQSLPRNAALRKLNDLIKRARLAKVHAYIISSLKKEMPNVFGKESKKKELVNNLGEIYQKIEREHQISPGDFPSLRKMQELLQTQDFSKFQALKPKLLDTVDDMLANDIARLMVMVRQEESLMPSQVVKGGAFDGTMNGPFGHGYGEGAGEGIDDVEWVVGKDKPTYDEIFYTLSPVNGKITGANAKKEMVKSKLPNTVLGEIWKLADVDKDGLLDDEEFALANHLIKVKLEGHELPADLPPHLVPPSKRRHE [K483E],with no effect

# Variants of: B2
# Conditions: with ehd1_human EHD1, Q9H4M9
row,Variant,effect of a mutation on the interaction
1,N425A;F427A,disrupting interaction

# Variants of: B2
# Conditions: with ehd1_human EHD1, Q9H4M9
# Remark: another data set of the same source
row,Variant,effect of a mutation on the interaction
1,N425A;F427A,decreasing interaction
